Tested on: TDG (thymine DNA glycosylase), full length (Homo sapiens)
Experiment: EMSA
Details: EMSA: 5 nM 32P DNA or mononucleosome, TDG 0-1 uM, buffer NB (composition not in material) + 0.2 mM MgCl2, 5% glycerol, 37 C 20 min; 5% native PAGE at 4 C

Row | Substance | Kd [nM]
1 | 0-NCP-0 mononucleosome | 185
2 | 0-NCP-30 mononucleosome | 59
3 | 30-NCP-30 mononucleosome | 62
4 | 601 DNA (naked, 147 bp) | 38

From article PMC7969020
